According to patent publication EP3741773A1:

Molecular target: meditope-enabled trastuzumab Fab fragment
Assay: SPR

Sequence of meditope-enabled trastuzumab Fab fragment (chain, as listed by the source, chain 1 of 2): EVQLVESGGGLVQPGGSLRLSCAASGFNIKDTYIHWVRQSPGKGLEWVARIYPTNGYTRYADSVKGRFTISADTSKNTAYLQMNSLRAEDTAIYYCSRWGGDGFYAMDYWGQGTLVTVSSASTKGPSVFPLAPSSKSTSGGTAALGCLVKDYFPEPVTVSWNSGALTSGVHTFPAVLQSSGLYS
Sequence of meditope-enabled trastuzumab Fab fragment (chain, as listed by the source, chain 2 of 2): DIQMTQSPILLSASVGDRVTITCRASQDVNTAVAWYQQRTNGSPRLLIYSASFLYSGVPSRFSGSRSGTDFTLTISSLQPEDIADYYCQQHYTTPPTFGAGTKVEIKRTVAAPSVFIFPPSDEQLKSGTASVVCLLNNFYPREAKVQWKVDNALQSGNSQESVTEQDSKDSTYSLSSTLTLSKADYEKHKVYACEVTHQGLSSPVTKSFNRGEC

Kd: 1000 nM
B1: cQFD meditope (peptide)
peptide: CQFDLSTRRLKC
modifications: not checked
